Experiments:
Human OX40 [1] = target: T1, Human OX40 (human, UniProt P43489 29-277); assay: cell-based or functional assay
T1 sequence: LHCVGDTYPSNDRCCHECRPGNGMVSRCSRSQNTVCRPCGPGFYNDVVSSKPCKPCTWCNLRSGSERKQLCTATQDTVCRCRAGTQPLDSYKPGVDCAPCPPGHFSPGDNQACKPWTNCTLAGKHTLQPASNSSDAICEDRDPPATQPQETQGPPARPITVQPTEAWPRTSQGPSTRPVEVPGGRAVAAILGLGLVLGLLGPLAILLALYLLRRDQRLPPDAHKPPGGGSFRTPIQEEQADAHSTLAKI

[2] = target: T2, KO_CRD3 (human OX40 aa 108 to 146 replaced with the mouse counterparts) (human; mouse, UniProt P43489 29-277); assay: flow cytometry, transfected 293F cells, column KO_CRD3
T2 construct: Chimeric variant with a transmembrane domain, transient on 293F cells
T2 chain: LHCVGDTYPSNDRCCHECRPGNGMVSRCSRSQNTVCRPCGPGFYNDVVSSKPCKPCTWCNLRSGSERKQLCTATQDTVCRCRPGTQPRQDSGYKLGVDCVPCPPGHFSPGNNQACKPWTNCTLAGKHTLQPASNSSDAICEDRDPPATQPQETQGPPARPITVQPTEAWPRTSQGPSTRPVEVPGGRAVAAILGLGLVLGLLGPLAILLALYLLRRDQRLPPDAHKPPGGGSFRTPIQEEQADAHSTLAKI

[3] = target: T3, Recombinant human TNFRSF1β (TNFRII) (human, UniProt P20333 23-257); assay: ELISA, plate coated with a dilution series of the recombinant TNFRSF protein [panel B]
T3 construct: Plate-adsorbed antigen of the ELISA; also called TNFR2; TNFRSF1B
T3 sequence (looked up): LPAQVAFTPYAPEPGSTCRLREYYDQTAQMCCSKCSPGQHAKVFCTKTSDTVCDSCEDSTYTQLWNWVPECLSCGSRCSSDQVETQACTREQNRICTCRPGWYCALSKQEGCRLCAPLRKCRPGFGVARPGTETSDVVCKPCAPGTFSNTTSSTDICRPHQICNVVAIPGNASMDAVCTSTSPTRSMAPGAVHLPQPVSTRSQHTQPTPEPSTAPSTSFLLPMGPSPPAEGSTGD
Procedure: (§1) An eight point, two-fold dilution series of each recombinant human TNFRSF protein was prepared after dilution of stock proteins to 5 μg/mL in PBS. Subsequently, 50 μL of each antigen dilution was transferred in duplicate to wells of a Nunc 96-well MaxiSorp flat bottom plate, and incubated overnight at 4° C. to adsorb proteins to the plate. Afterwards, plates were washed three times with PBS in a BioTek® plate washer to remove unbound protein. Anti OX40 mAb29, 9B12, and control antibodies were diluted in PBS to a final concentration of 10 μg/mL, and 50 μL of mAb were added to each well and incubated at room temperature for one hour to bind mAb to plate-bound protein. Thereafter, wells were washed with PBS/Tween-20 0.1% (volume/volume) using a BioTek® plate washer. HRP conjugated goat anti-human or goat anti-mouse secondary antibodies at 10 μg/mL was added to each well and incubated at room temperature for 1 hour. After three washes in PBS/Tween-20 0.1%, 50 μL of TMB substrate was added to each well and incubated at room temperature for 5 minutes to develop the colorimetric product. Reactions were stopped by adding 50 μL of 0.5 molar H₂SO₄ to wells, and plates read immediately at 450 nm using an Envision C plate reader for detection of the colorimetric product.

[4] = target: T4, Recombinant human TNFRSF6 (FAS) (human, UniProt P25445 26-173); assay: as above
T4 construct: Plate-adsorbed antigen of the ELISA
T4 sequence (looked up): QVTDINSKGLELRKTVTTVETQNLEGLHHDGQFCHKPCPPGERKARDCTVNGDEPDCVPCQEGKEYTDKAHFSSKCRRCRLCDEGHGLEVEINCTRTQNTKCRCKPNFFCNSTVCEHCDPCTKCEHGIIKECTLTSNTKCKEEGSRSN
Procedure: as §1

[5] = target: T5, Recombinant human TNFRSF21 (DR6) (human, UniProt O75509 42-349, limits assumed); assay: as above
T5 construct: Plate-adsorbed antigen of the ELISA
T5 sequence (looked up): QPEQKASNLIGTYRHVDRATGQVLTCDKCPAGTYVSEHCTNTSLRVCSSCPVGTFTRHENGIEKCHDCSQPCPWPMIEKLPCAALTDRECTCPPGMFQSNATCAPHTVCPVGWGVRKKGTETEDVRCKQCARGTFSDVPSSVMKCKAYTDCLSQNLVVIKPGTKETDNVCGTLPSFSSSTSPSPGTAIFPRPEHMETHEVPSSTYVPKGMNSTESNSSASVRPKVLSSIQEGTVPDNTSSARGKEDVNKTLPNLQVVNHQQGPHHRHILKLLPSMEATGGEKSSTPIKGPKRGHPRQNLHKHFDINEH
Procedure: as §1

[6] = target: T6, Recombinant human TNFRSF18 (GITR) (human, UniProt Q9Y5U5 26-162, limits assumed); assay: as above
T6 construct: Plate-adsorbed antigen of the ELISA
T6 sequence (looked up): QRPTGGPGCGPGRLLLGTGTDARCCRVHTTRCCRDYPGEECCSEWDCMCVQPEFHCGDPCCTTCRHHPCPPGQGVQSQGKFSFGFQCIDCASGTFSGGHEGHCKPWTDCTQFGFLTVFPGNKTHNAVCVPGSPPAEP
Procedure: as §1

Rhesus monkey OX40 = target: T7, Rhesus monkey OX40 (rhesus monkey); assay: flow cytometry, equilibrium binding to activated primary rhesus CD4+ T cells; mean of 2 experiments (StdErr)
T7 construct: also called rhesus macaque OX40

Human OX40 [7] = target: T1, Human OX40; assay: cell-based or functional assay; remark: listed apart in the source
[8] = target: cyno/rhesus OX40 expressed on Jurkat NFκB-luciferase reporter clone B2 (cynomolgus/rhesus monkey); assay: cell-based or functional assay
Human OX40 [9] = target: T1, Human OX40; assay: cell-based or functional assay; remark: listed apart in the source

B1: 9B12 (antibody, mouse IgG1, V domains shown)
VH: EVQLQESGPSLVKPSQTLSLTCSVTGDSFTSGYWNWIRKFPGNRLEYMGYISYNGITYHNPSLKSRISITRDTSKNHYYLQLNSVTTEDTATYFCARYRYDYDGGHAMDYWGQGTLVTVSS
VL: DIQMTQTTSSLSASLGDRVTISCRASQDISNYLNWYQQKPDGTVKLLIYYTSKLHSGVPSRFSGSGSRTDYSLTITDLDQEDIATYFCQQGSALPWTFGQGTKVEIKR
notes: mouse IgG1 kappa; also called murine mAb 9B12; mouse anti-human OX40 IgG1κ monoclonal antibody
EC50, CD4+ T cell proliferation, donor 367 (Human OX40 [1]): 0.156 nM | EC50, CD4+ T cell proliferation, donor 645 (Human OX40 [1]): 0.169 nM | EC50, CD4+ T cell proliferation, donor 651 (Human OX40 [1]): 0.309 nM | EC50, CD4+ T cell proliferation, donor 661 (Human OX40 [1]): 0.237 nM | binding result [2]: no binding | binding result [3]: no binding | binding result [4]: no binding | binding result [5]: no binding | binding result [6]: no binding | Kd (Rhesus monkey OX40): 0.713 nM | mean EC50, NFκB-luciferase 2-cell assay, human Raji B cells + human OX40 Jurkat clone 64 (Human OX40 [7]): 4.68 nM | EC50, NFκB-luciferase 2-cell assay, rhesus RBC-lysed whole blood + cyno/rhesus OX40 Jurkat clone B2 [8]: 6.05 nM | EC50, IL5 release, donor 651 (Human OX40 [9]): 1.09 nM
